Assay results reported in patent US20140005119A1, “COMPOSITIONS AND METHODS FOR INHIBITING THE ACTIVITY OF P110a MUTANT PROTEINS” (Case Western Reserve University, priority 2012, published 2014).
Bridges are numbered along the chain shown (N, C = ends). Where no end group is shown, it is not given here. [ ]: non-standard residue; d: D form. S5 = C=CCCC[C@](C)(N)C(=O)O

Columns and labels:
[1] = target: T1, interaction between p110α E545K and IRS1 (Homo sapiens, UniProt P35568); test: Peptide competition assay in cell lysates (anti-FLAG immunoprecipitation, anti-IRS1 blot); assay type: binding; conditions: peptide added into cell lysates of p110α E545K 3×FLAG KI cells
T1 construct: In KI DLD1 cells, IRS1 was co-immunoprecipitated with p110α E545K but not the WT p110α; endogenous in cells; host or cells: DLD1 p110α E545K 3×FLAG knock-in cells (rAAV gene targeting of the endogenous allele)
T1 sequence (P35568 1-1242): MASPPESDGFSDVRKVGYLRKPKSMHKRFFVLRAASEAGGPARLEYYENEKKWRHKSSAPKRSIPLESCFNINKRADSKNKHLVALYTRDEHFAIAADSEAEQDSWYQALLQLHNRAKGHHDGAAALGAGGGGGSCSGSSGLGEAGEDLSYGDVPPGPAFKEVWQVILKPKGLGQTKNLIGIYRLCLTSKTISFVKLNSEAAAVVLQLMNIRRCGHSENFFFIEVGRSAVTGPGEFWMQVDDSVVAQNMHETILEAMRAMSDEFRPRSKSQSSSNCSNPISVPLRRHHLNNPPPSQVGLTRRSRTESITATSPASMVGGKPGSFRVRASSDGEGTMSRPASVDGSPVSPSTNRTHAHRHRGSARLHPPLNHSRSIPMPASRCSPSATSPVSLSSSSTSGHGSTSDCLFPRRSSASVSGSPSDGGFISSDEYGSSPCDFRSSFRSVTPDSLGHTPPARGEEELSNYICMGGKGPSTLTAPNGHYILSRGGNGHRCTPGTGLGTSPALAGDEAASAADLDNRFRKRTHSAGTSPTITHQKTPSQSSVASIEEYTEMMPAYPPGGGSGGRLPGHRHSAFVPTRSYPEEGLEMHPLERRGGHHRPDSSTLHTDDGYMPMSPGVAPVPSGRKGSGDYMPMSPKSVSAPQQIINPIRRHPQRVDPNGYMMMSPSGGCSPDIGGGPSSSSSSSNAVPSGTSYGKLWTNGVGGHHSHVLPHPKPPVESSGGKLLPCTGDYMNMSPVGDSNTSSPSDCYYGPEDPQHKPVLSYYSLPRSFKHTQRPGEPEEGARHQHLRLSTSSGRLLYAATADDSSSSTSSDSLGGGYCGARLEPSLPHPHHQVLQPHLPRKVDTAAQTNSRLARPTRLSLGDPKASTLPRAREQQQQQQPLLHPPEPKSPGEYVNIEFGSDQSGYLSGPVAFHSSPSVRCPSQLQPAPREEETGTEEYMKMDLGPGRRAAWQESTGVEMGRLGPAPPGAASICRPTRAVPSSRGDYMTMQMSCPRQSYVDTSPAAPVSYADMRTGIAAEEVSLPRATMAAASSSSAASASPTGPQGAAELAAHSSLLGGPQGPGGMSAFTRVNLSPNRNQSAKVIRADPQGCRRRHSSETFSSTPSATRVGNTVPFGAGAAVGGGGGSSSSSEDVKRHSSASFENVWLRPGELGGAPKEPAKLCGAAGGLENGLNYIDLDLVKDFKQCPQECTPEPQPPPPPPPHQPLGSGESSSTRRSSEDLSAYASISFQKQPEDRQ
Description: FIGS. 3(A-M) illustrate: (A, B) Mapping peptides (P3, SEQ ID NO: 1; P4 SEQ ID NO: 2; P5, SEQ ID NO: 3; P6, SEQ ID NO: 4) derived from mutant p110α that inhibit interaction between IRS1 and p110α E545K. The indicated peptides were added into cell lysates made from the p110α E545K 3×FLAG KI cells. Cell lysates were immunoprecipitated with beads conjugated with anti-FLAG antibodies and then blotted with anti-IRS1 antibodies. (C) Immunoblots of cell lysates made from the p110α E545K 3×FLAG KI cells. Cell lysates were immunoprecipitated with beads conjugated with anti-FLAG antibodies and then blotted with the indicated antibodies. (D) Immunoblots of cell lysate of Myc-tagged IRS1 plasmid, which co-transfected an ABD domain deletion construct of the FLAG-tagged p110α E545K mutant (ΔABD), incubated with the indicated amount of stapled p110α mutant peptides, and then immunoprecipitated with anti-FLAG antibodies and blotted with the indicated antibodies. (J, K) Immunoblot and graph of purified recombinant p110α E545K mutant proteins mixed with the indicated components and quantified using an in vitro lipid kinase assay. (L, M) Immunoblots of the indicated cell lines serum-starved, stimulated with 1 μg/ml insulin for 30 min, and then treated with or without the indicated peptides. Cell lysates were blotted with the indicated antibodies. All error bars show mean±SEM. *p<0.05, **p<0.001, t test.
(§1) For Co-immunoprecipitation (Co-IP), cells were harvested, washed with PBS, and then lysed in IP buffer (50 mMTris [pH 7.4], 150 mMNaCl, 5 mMEDTA [pH 8.0], 0.5% NP40, 1 mM PMSF, complete Protease Inhibitor Cocktail tablet [Roche]; supplemented with phosphatase inhibitors [1 mM Na3VO4, 20 mM NaF, 0.1 mM b-glycerophosphate, 20 mM sodium pyrophosphate] when necessary). For immunoblotting (IB) of phospho-specific proteins, unless stated otherwise, cells were lysed in urea buffer (100 mM NaH2PO4, 10 mM Tris-HCl, 8 M Urea, 1 mM Na3VO4, 20 mM NaF, 0.1 mM β-glycerophosphate, 20 mM sodium pyrophosphate, supplemented with complete Protease Inhibitor Cocktail tablet [Roche], pH 8.0). Lysates were then cleared by centrifugation (14,000 rpm, 10 min) and protein concentration in supernatants was determined with a BCA protein assay kit (Pierce, Rockford, Ill.). Equal amounts of total protein were used for IP or IB.
For in vitro peptide competition assay, the p110α mutant-FLAG-tagged cells were grown to 90% confluency, serum-starved overnight, and lysed as described previously. Peptides were then added to the cell lysates, incubated for 30 min at 4° C. and followed by immunoprecipitation assay.

[2] = target: T2, IRS1-p110α E545K interaction in DLD1 cells (Homo sapiens, UniProt P35568); test: Co-IP after peptide added to culture medium of p110α E545K 3×FLAG KI DLD1 cells; assay type: cell-based; design: dose or concentration left out as unconfirmed; conditions: peptide added to cell culture medium for 16 hr
T2 construct: endogenous in cells; host or cells: DLD1 p110α E545K 3×FLAG knock-in cells (rAAV gene targeting of the endogenous allele)
T2 sequence (P35568 1-1242): T1 sequence (P35568 1-1242)
Description: FIG. 4(A-F) illustrate: (A) Schematic diagram of linear and stapled WT and mutant peptides derived from p110α (SEQ ID NOs: 5, 6, 7 and 8). (B) Immunoblots of cell lysates immunoprecipitated with beads conjugated with anti-FLAG antibodies and then blotted with the indicated antibodies. Linear or stapled WT and mutant peptide were added into culture medium of the p110α E545K 3×FLAG KI cells for 16 hr. (C) Immunoblots of cell lysates immunoprecipitated with anti-p110α antibodies and then blotted with the indicated antibodies. Vaco481 CRC cells were treated with the stapled mutant peptides at the indicated concentration. (D) Immunoblots of cell lysates blotted with the indicated antibodies. The indicated cell lines were treated with the stapled mutant peptide. (E) Immunoblots of cell lysates blotted with the indicated antibodies. The indicated cancer cell lines were treated or untreated with stapled WT or mutant peptide at […] for 2 hr. (F) Immunoblots of cell lysates were blotted with the indicated antibodies. The indicated cancer cell lines were treated with or without […] of stapled mutant peptide for 2 hr.
as §1

inhibition of the interaction between p110α E545K and IRS1 [1]	inhibition of the interaction between p110α E545K and IRS1 ([1]; listed as stapled polypeptide substantially homologous to the C-terminal α-helical motif o)	Substance	disruption of IRS1-p110α E545K interaction in DLD1 cells [2]
almost completely disrupted	disrupted	H2N-SEITKQEK-D^549-FLW-S^553-HRHYC-COOH [stapled mutant peptide]	effectively disrupted
did not inhibit	–	H2N-SEITEQEKD^549-FLW-S^553-HRHYC-COOH (SEITEQEK[S5]FLW[S5]HRHYC; staple 9-13; not fully specified (N-terminus, C-terminus); printed as H2N-SEITEQEKD549-FLW-S553-HRHYC-COOH; listed as Homo sapiens) [stapled WT peptide, stapled wild-type p110α counterpart of the stapled mutant peptide, used as control, reference compound]	neither the linear mutant peptide nor the stapled WT peptide affected the interaction
